pIC50: −log10 of the molar value.
What was measured:
[1] = biological target: mouse ICOS-mFc (Chimerigen) (mouse) (UniProt Q9WVS0); assay: HTRF neutralisation of Alexa 647 mouse B7-H2 binding to mouse ICOS-mFc; hamster IgG, run with the IgG1 mAbs
[2] = biological target: human ICOS-mFc (Chimerigen) (human) (UniProt Q9Y6W8); assay: HTRF neutralisation of Alexa 647 human B7-H2 binding to human ICOS-mFc; hamster IgG, run with the IgG1 mAbs; mean, n = 4
[3] = biological target: mouse ICOS-mFc (Chimerigen) (mouse) (UniProt Q9WVS0); assay: HTRF neutralisation of Alexa 647 mouse B7-H2 binding to mouse ICOS-mFc; hamster IgG, run with the IgG1 mAbs; mean, n = 3
[4] = biological target: human ICOS-mFc (Chimerigen) (human) (UniProt Q9Y6W8); assay: HTRF neutralisation of Alexa 647 human B7-H2 binding to human ICOS-mFc; hamster IgG, run with the IgG4.PE mAbs; mean, n = 4
[5] = biological target: mouse ICOS-mFc (Chimerigen) (mouse) (UniProt Q9WVS0); assay: HTRF neutralisation of Alexa 647 mouse B7-H2 binding to mouse ICOS-mFc; hamster IgG, run with the IgG4.PE mAbs; mean, n = 3

Chain of mouse ICOS-mFc (Chimerigen) (mouse) (Q9WVS0 21-141 limits assumed, change not shown): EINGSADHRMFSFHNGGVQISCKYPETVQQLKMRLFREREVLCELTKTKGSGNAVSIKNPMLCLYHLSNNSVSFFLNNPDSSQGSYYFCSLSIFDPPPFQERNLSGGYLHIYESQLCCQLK
Chain of human ICOS-mFc (Chimerigen) (human) (Q9Y6W8 21-140, change not shown): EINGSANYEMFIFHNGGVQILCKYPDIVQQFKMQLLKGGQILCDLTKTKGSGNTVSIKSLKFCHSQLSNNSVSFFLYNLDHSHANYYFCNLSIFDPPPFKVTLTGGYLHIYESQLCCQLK

pIC50 [1]: 9.85
pIC50 [2]: 8.92
pIC50 [3]: 10.00
pIC50 [4]: 8.55
pIC50 [5]: 9.70
Substance: Anti-ICOS antibody C398.4A (hamster IgG)

— patent US20180066058A1
